Literature values in article PMC8406260.

Target: SARS-CoV-2 main protease Mpro (Severe acute respiratory syndrome coronavirus 2) (UniProt P0DTD1)

SARS-CoV-2 main protease Mpro (from UniProt P0DTD1)
Kd: 2 µM
